Results as given in patent publication JP2023110925A.

Target: ペプチド13(Aβのaa 13-21) (UniProt P05067)
Assay: ELISA on biotinylated peptides (Mimotopes format)

B1: ヒト化抗ヒトアミロイドβモノクローナル抗体hC2 (antibody, human IgG4 S228P, kappa, V domains shown)
VH: EVQLVESGGGLVQPGGSLRLSCAASGFTFSSYGMSWVRQAPGKGLELVASINSNGGSTYYPDSVKGRFTISRDNAKNSLYLQMNSLRAEDTAVYYCASGDYWGQGTTVTVSS
VL: DIVMTQSPLSLPVTPGEPASISCRSSQSLVYSNGDTYLHWYLQKPGQSPQLLIYKVSNRFSGVPDRFSGSGSGTDFTLKISRVEAEDVGVYYCSQSTHVPWTFGQGTKVEIKR
- percent higher affinity than for whole Aβ1-42 protein: 36%
